A short description of the series: yeast display, Sf9 membrane polyspecificity reagent, FACS + sequencing; frameworks hold sequencing errors. The procedure, abridged:
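Nanobodies from a synthetic yeast display library (Saccharomyces cerevisiae BJ5465), induced 36–48 hours with galactose, were stained 1 hour at 4 °C with 10% biotinylated, detergent-solubilized Sf9 membrane reagent, enriched on streptavidin microbeads, then FACS-sorted. Anti-HA (expression) and streptavidin (reagent binding) fluorescence set low and high (top ~1%) gates. Polyreactivity labels come from the gate of origin. Genes were colony-PCR amplified, MiSeq 2 × 250 sequenced and filtered by CDR length.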
Take “QVQLVESGGGLVQAGGSLRLSCAASGLIFVANAMGWYRQAPGKERELVAAISRSGGITYYADSVKGRFTISRDNAKNTVYLQMNSLKPEDTAVYYCAAELVYFFIYDYWGQGTQVTVSS”: the “polyreactivity (PSR sort gate)” value is “low polyreactivity”.
The entry for “QVQLVESGGGLVQAGGSLRLSCAASGLIFVAYAMGWYRQAPGKERELVAAISRNGGSTYYADSVKGRFTISRDNAKNTVYLQMNSLKPEDTAVYYCAARYAYYTARYTQVKGLDYWGQGTLVTVSS” is “high polyreactivity”; for “QVQLVESGGGLVQAGGSLRLSCAASGLIFVDYTMGWYRQAPGKERELVAGISNSGNTNYADSVKGRFTISRDNAKNTVYLQMNSLKPEDTAVYYCAAVYTWYPWYPYDYWGQGTQVTVSS” it is “low polyreactivity”.
The result for “QVQLVESGGGLVQAGGSLRLSCAASGLIFVKNTMGWYRQAPGKERELVAGISQRGGSTYYADSVKGRFTISRDNAKNSVYLQMNILKPEDTAVFYCAAYSRTFEGHRGGYWGQGTQVTVSS” reads “high polyreactivity”.
The entry for “QVQLVESGGGLVQAGGSLRLSCAASGLIFVNYAMGWYRQAPGKERELVAAISVSGGSTYYADSVKGRFTISRDNAKNTVYLQMNSLNPEDTAVYYCNAYFRSQRYGYRVDYWGQGTQVTVSS” is “high polyreactivity”; for “QVQLVESGGGLVQAGGSLRLSCAASGLIFVRYAMGWYRQAPGKERELVATITWSGGTTYADSVKGRFTISRDNAKNTVYLQMNSLKPEDTAVYYCAVEWPAWTDSDYPVGGHAFGYWGQGTQVTVSS” it is “low polyreactivity”; for “QVQLVESGGGLVQAGGSLRLSCAASGLIFVSYAMGWYRPAPGKERELVASITDSDSSTYYADSVKGRFTISRDNAKNTVYLQMNSLKPEDTAVYYCATGGRTEIWYPTLDYWGQGTQVTVSS” it is “low polyreactivity”.
“QVQLVESGGGLVQAGGSLRLSCAASGLIFVWYAMGWYRQAPGKERELVAAISWRGGTRYYADSVKGRFTISRDNAKNTVYLQMTSLKPEDTAVYYCARDPDTYFFPPNGYYSSGFDSWGQGTQVTVSS”: the “polyreactivity (PSR sort gate)” value is “low polyreactivity”.
The result for “QVQLVESGGGLVQAGGSLRLSCAASGLIFVWYAMGWYRQAPGKERELVAAISWRGGTTYYADSVKGRFTISRDNAKNTVYLQMNSLKPEDTAVYYCNAVGSQVDYLRYVWYDMDYWGQGTQVTVSS” reads “low polyreactivity”; that for “QVQLVESGGGLVQAGGSLRLSCAASGLIFWHYAMGWYIQAPGKERELVARISYGGGSTYYADSVKGRFTISRDNAKNTVYLQMISLKPEDTSVYYCNAKYYSVSQYYWGQGTQVTVSS”, “high polyreactivity”; that for “QVQLVESGGGLVQAGGSLRLSCAASGLIFWQYAMGCYRQAPGKERELVAAISIGGSTNYADSVKGRFTISRDNAKNTVYFQMNSLKPEDTAVYYCNAAFLRQVWAGYNYWGQGTQVTVSS”, “high polyreactivity”.
The result for “QVQLVESGGGLVQAGGSLRLSCAASGLIFYAYAMGWYRQAPGKERELVAAISGSGGNTYYADSVKGRFTISRDNAKNTVYLQMNSLKPEDTAVYYCAADYTAAYPDSMYYWGQGTQVTVSS” reads “low polyreactivity”; that for “QVQLVESGGGLVQAGGSLRLSCAASGLIFYDNMGWYRQAPGKERELVAAISSSGGSTSYADSVKGRFTISRDNAKNTVYLQMNSLKPEDTAVYYCAAQYPAYYTNSYWGQGTQVTVSS”, “low polyreactivity”.
For “QVQLVESGGGLVQAGGSLRLSCAASGLIFYDNMGWYRQAPGKERELVAAISSSGGSTSYAYSVKGRFSISRDNAKYTVYLQMISLKREDTAVYYCAADSYRAYLGFVGFDYWGQGTQVTVSS”, the “polyreactivity (PSR sort gate)” value is on record as “low polyreactivity”.
The entry for “QVQLVESGGGLVQAGGSLRLSCAASGLIFYFYVMGWYRQAPGKERELVAGIDTGSSTNYADSVKGRFTISRDNAKNTVYLQMNSLKPEDTAVYYCAADSVSKYGSDYWGQGTQVTVSS” is “low polyreactivity”.
On to “QVQLVESGGGLVQAGGSLRLSCAASGLIFYGNAMGWYREAPGKERELVAAISRRGGRTYYADSVKGRFTISRDNAKKSVYLQMHSLKPEDTAVYYCAAGVPKNGQAGYDYWGQGTQVTVSS”, for which the “polyreactivity (PSR sort gate)” value was “high polyreactivity”.
The result for “QVQLVESGGGLVQAGGSLRLSCAASGLIFYHNAMRWYRQAPGKERELVAAMTASGGSTYYADSVKGRFTISRDNAKNTVYLQMNSLKPEDTAVYYCAADGPLDSDLDYWGQGTQVTVSS” reads “low polyreactivity”; that for “QVQLVESGGGLVQAGGSLRLSCAASGLIFYKNAMGWYRQAPGKEREFVAAISRSGASTYYADSVKARFTISRDNAKNTVYLQMNSLKPEDTAVYYCAARAGANYRMDYWGQGTQVTVSS”, “high polyreactivity”; that for “QVQLVESGGGLVQAGGSLRLSCAASGLIFYLYAMGWYRQAPGKEREFVAAITTSGGSTHYADSVKGRFTISRDNAKNTVYLQMNSLKPEDTAVYYCAADDYFHGPGLEFDYWGQGTQVTVSS”, “low polyreactivity”.
The result for “QVQLVESGGGLVQAGGSLRLSCAASGLIFYPYAMGWYRQAPGKERELVAAITSGDSTYYADSVKGRFTISRDNAKNTVYLQMNSLKPEDTAVYYCNADASYYYYHSDTVYGFDYWGQGTQVTVSS” reads “low polyreactivity”; that for “QVQLVESGGGLVQAGGSLRLSCAASGLIFYPYAMGWYRQAPGKERELVAGISSSGDSTYYADSVKGRFTISRDNAKNTVYLQMNSLKPEDNAVYYCNTGWDPYGYDYWGQGTQVTVSS”, “low polyreactivity”.
The entry for “QVQLVESGGGLVQAGGSLRLSCAASGLIFYQYAMGWYRQAPGKERELVAAINWSGGSTYYADSVKGRFTISRDNAKNTVYLQMNSLKPEDTAVYYCAADTAFRFALTRYRPMDYWGQGTQVTVSS” is “high polyreactivity”.
With “QVQLVESGGGLVQAGGSLRLSCAASGLIFYRNAMGRTRQAPGKERELVAAISASGGRTYYADSVKGRFTISRDTEKNTVYLPMNSLKPEDTAVYYCAAKSLLLSMDYWGQGTQVTVSS”, the “polyreactivity (PSR sort gate)” value was “high polyreactivity”.
The entry for “QVQLVESGGGLVQAGGSLRLSCAASGLIFYRYAMGTTRQAPGKERELVATISGGGRTYYADSVKGRFTISRDNAKNTVYLQMNSLKPEDTAVYYCNADRQWYSIGSWEYDYWGQGTQVTVSS” is “high polyreactivity”.
The entry for “QVQLVESGGGLVQAGGSLRLSCAASGLIFYRYAMGWYRQAPGKERELVAAITASGGTTYYADSVKGRFTISRDNAKNTVYLQMNSLKPEDTAVYDCASPYTYWRRIGVDYDYWGQGTQVTVSS” is “high polyreactivity”; for “QVQLVESGGGLVQAGGSLRLSCAASGLIFYRYAMGWYRQAPGTEREMVAAITTNGARTYYADSVKGRFTISRDNAKNTVYLEMNSLKPEDTAVYYCAAYGAGKFWADHNYWGQGTQVTVSS” it is “high polyreactivity”; for “QVQLVESGGGLVQAGGSLRLSCAASGLIFYSYAMGWYRQAPGKERELVAAITGGGSTNYADSVKGRFTISRDNAKNTVYLQMNSLKPEDTAVYYCAAAFTLRKYDYWGQGTQVTVSS” it is “low polyreactivity”.
The entry for “QVQLVESGGGLVQAGGSLRLSCAASGLIFYYYAKGWYRQAPGKEREFVAAISRSGGITRYADSVKGRFTISRDNAKITVYLQMNSLKPEDTAVYYCAADDYPLTYDDYYWGQGTQVTVSS” is “high polyreactivity”.
Take “QVQLVESGGGLVQAGGSLRLSCAASGLIFYYYSMGWYRQAPGKERELVAAISGGGSTYYADSVKGRFTISRDNAKNTVYLQMNSLKPEDTAVYYCAADTRTSYYKDDYDYWGQGTQVTVSS”: the “polyreactivity (PSR sort gate)” value is reported as “low polyreactivity”.
The result for “QVQLVESGGGLVQAGGSLRLSCAASGLIFYYYTMGWYIQAPGKVRELVAAISSAGSTYYADSVKGRFTISRDNAKNTVYLQMNSLKPEDTEVYYCATRSQAQYTRYYGYRQFYYWGQGTQVTVSS” reads “high polyreactivity”.

These data come from the nanobody polyreactivity screen of Harvey et al. (2022).
